The text below walks through data of paper PMC4018761.

Test [1] deals with GST-E2 300-360 (Epstein-Barr virus) (UniProt P12978). The test is described as follows: pull-down.
Test [2] deals with GST-E2 335-360 (Epstein-Barr virus) (UniProt P12978). The test is described as follows: pull-down.

With “endogenous PRMT5 (protein arginine methyltransferase 5) (from UniProt O14744 1-637) (enzyme)”, the percent of endogenous PRMT5 pulled down in test [1] and in test [2] was 5% each time.
